Results taken from publication PMC4587554.

Biological target: Pf12 (His26 to Ser321) (Plasmodium falciparum) (UniProt C6KSX0)
Experiment: ITC; Pf12 10 μM in the sample cell; full length Pf41 or Pf41ΔID 100 μM added in 16 injections of 2.4 μL, 180 s apart; 25°C; one-site model; single experiment representative of two

With “Pf41 full length (mature, Lys21 to Ser378) (from UniProt Q8I1Y0 21-378) (natural protein)” the Kd was 27.7 nM, the dH was -33.9 kcal/mol and the stoichiometry N was 0.85 Pf41:Pf12.
